Columns and labels:
CLDN8 = target: T1, CLDN8 (human, UniProt P56748 1-225); assay: FACS on SW480 cells transiently transfected with human CLDN8
T1 construct: whole, on cells; also called human CLDN8
T1 sequence (looked up): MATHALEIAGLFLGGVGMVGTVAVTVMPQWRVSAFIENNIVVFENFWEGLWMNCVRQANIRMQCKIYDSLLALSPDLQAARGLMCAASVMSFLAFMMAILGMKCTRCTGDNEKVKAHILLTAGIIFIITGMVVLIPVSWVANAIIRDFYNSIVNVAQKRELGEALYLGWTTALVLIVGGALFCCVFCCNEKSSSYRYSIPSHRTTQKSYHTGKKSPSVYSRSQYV
Procedure: (§1) A). Cell lysates derived from SW480 or CLDN-transfected SW480 were tested by Western-Blotting. B) FACS histograms of the binding 6F6C3 mAb (10 μg/mL-gray histogram) or control without 6F6C3 (dashed histogram) or irrelevant antibody 35A7 (black histogram) to the different CLDNs.
(§2) After transitory tranfection on SW480 cells of human cDNA clone of CLDN8 (sc320974, Origene technologies, USA) and murine cDNA clone of CLDN1 (IRAVp968A105D, LifeScience), we analysed by FACs cross-reactivity of 6F6C3 mAb.

murine CLDN1 = target: T2, murine CLDN1 (murine, UniProt O88551 1-211); assay: FACS on SW480 cells transiently transfected with murine CLDN1
T2 construct: whole, on cells; also called mCLDN1
T2 sequence (looked up): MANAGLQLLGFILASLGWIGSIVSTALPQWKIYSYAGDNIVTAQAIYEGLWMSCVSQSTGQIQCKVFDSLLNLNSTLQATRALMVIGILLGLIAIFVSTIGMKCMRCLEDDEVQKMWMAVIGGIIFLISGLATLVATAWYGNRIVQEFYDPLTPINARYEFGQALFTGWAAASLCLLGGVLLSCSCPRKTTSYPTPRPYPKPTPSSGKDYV
Procedure: as §1, §2

CLDN7 = target: T3, CLDN7 (UniProt O95471 1-211, limits assumed); assay: FACS on parental SW480 cells, which express CLDN7
T3 construct: whole, on cells; It is endogenous in the human SW480 cell line
T3 sequence (looked up): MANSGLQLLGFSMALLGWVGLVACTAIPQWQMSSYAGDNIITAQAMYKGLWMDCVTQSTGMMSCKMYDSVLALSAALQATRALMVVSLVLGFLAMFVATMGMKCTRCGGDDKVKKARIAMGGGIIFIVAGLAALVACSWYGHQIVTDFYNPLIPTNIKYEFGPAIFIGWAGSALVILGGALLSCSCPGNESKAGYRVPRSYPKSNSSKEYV
Procedure: as §1, §2

Measured: binding result

B1: 6F6C3 mAb (antibody, V domains shown)
VH: QIQLVQSGPELKKPGETVRISCKASGYTFTTSGMQWLQKMPGKGLKWIGWINTHFGEPKYAEDFKGRFAFSLETSASTAYLQISNLKNEDTATYFCAGAGYYGSRYFDVWGAGTTVTVSS
VL: DIVMTQSQKFMSTSVGDRVSITCKASQNVGTAVAWYQQKPGQSPKLLIYSASNRYTGVPDRFTGSGSGTDFTLTISNMQSEDLADYFCQQYSSYPLTFGGGTKLEIK
notes: Murine hybridoma antibody; Used as purified mAb or as hybridoma supernatant; also called mAb6F6C3; murine anti-CLDN1 antibody (6F6C3)
no binding (tested: 10 µg/mL): all assays above
